Reference: US20220064286A1

Assays:
[1] = target: hTIGIT mutant Q53A (human) (UniProt Q495A1); assay: SPR (BIACORE), N=2
[2] = target: hTIGIT mutant Y113A (human) (UniProt Q495A1); assay: SPR (BIACORE), N=2
[3] = target: hTIGIT mutant Q53A (human) (UniProt Q495A1); assay: SPR (BIACORE) KD normalized to WT, N=2
[4] = target: hTIGIT mutant Y113A (human) (UniProt Q495A1); assay: SPR (BIACORE) KD normalized to WT, N=2
[5] = target: hTIGIT mutant H76A (human) (UniProt Q495A1); assay: SPR (BIACORE), N=2
hTIGIT mutant H76A (human), sequence (Q495A1 22-141 H76A limits assumed): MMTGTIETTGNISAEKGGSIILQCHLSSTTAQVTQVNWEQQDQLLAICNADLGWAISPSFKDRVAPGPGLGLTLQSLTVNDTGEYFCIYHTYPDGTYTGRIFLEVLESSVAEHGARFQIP

[6] = target: hTIGIT mutant L73A (human) (UniProt Q495A1); assay: SPR (BIACORE), N=2
hTIGIT mutant L73A (human), sequence (Q495A1 22-141 L73A limits assumed): as the sequence (Q495A1 22-141 H76A limits assumed) above, with L52A, A55H counted along it

[7] = target: hTIGIT mutant H76A (human) (UniProt Q495A1); assay: SPR (BIACORE) KD normalized to WT, N=2
[8] = target: hTIGIT mutant L73A (human) (UniProt Q495A1); assay: SPR (BIACORE) KD normalized to WT, N=2
[9] = target: hTIGIT mutant N70A (human) (UniProt Q495A1); assay: SPR (BIACORE), N=2
hTIGIT mutant N70A (human), sequence (Q495A1 22-141 N70A limits assumed): as the sequence (Q495A1 22-141 H76A limits assumed) above, with N49A, A55H counted along it

[10] = target: hTIGIT mutant N70A (human) (UniProt Q495A1); assay: SPR (BIACORE) KD normalized to WT, N=2

hTIGIT mutant Y113A (human), sequence (Q495A1 22-141 Y113A limits assumed): as the sequence (Q495A1 22-141 H76A limits assumed) above, with A55H, Y92A counted along it
hTIGIT mutant Q53A (human), sequence (Q495A1 22-141 Q53A limits assumed): as the sequence (Q495A1 22-141 H76A limits assumed) above, with Q32A, A55H counted along it

| Kd [1] | Kd [2] | Binding affinity drop vs. WT [3] | Binding affinity drop vs. WT [4] | Kd [5] | Kd [6] | Binding affinity drop vs. WT [7] | Binding affinity drop vs. WT [8] | Kd [9] | Binding affinity drop vs. WT [10] | Binder |
| --- | --- | --- | --- | --- | --- | --- | --- | --- | --- | --- |
| > 100 nM | > 100 nM | > 56 fold | > 56 fold | – | – | – | – | – | – | 7.4A3.C96S.Q1E (antibody, V domains shown) VH: EVQLVQSGSDLKKPGASVRVSCKASGYTFTSYPMNWVRQAPGHGLEWMGWINTNTGNPTYVQGFTGRFVFSLDTSVNTAYLQISSLKAEDTAVYFCARTGGHTYDSYAFDVWGQGTMVTVSS VL: DIQLTQSPTFLSASVGDRVTITCRASQVISSSLAWYQQNPGKAPKLLIYAASTLQSGVPSRFSGSGSGTEFTLTISSLQPEDFVTYYCQHLHGYPSNFGQGTKVEIK |
| – | – | – | – | > 100 nM | > 100 nM | > 143 fold | > 143 fold | – | – | h6B2.L2H5 (antibody, V domains shown) VH: EVTLKESGPALVKPTQTLTLTCTFSGFSLSTYGMGVSWIRQPPGKALEWLASIWWNGNTYYNPSLKSRLTITKDTSKNQVVLTMTNMDPVDTATYYCAHTGGAVITWFAYWGQGTLVTVSS VL: DIQMTQSPSSLSASVGDRVTITCKASQSVGKNIAWYQQKPGKAPKLLIYYASNRYTGVPSRFSGSGSGTDFTFTISSLQPEDIATYYCQHIYNSPYPFGQGTKVEIK |
| > 500 nM | > 500 nM | > 16.2 fold | > 16.2 fold | – | – | – | – | > 500 nM | > 16.2 fold | 4.1A4.C96S.Q1E (antibody, V domains shown) VH: EVQLVQSGSELKKPGASVKVSCKASGYTLTNYPMNWVRQAPGRGLEWMGWINTNTGSPAYAQDFTERFVFSLDTSVTTAYLQISSLKAEDTAVYYCARTAITSVYHFDYWGQGTLVTVSS VL: DIQLTQSPSFLSASVGDRVTITCRASQGISSYLAWYQQKPGKAPRVLIYGATTLQSGVPSRFSGSESGTEFTLTISSLQPEDLATYYCQKLNSHPSSFGQGTKVEIK |
